Test results: PMC10189049

Biological target: TCR Vβ3.1 on CH7C17 Jurkat cells
Experiment: fluorescence microscopy of labelled protein on cells

Staphylococcal Enterotoxin B (from UniProt P01552 28-266) (natural protein)
MFI at 5 minutes: 427
